The record followed here is publication PMC12480533 (Nature Communications, 2025).

The data set deals with the molecule itself. Briefly: cryo-EM structure.

B1: full-length human SLC30A10 (natural protein, UniProt Q6XR72 1-485, looked up)
chain: MGRYSGKTCRLLFMLVLTVAFFVAELVSGYLGNSIALLSDSFNMLSDLISLCVGLSAGYIARRPTRGFSATYGYARAEVVGALSNAVFLTALCFTIFVEAVLRLARPERIDDPELVLIVGVLGLLVNVVGLLIFQDCAAWFACCLRGRSRRLQQRQQLAEGCVPGAFGGPQGAEDPRRAADPTAPGSDSAVTLRGTSVERKREKGATVFANVAGDSFNTQNEPEDMMKKEKKSEALNIRGVLLHVMGDALGSVVVVITAIIFYVLPLKSEDPCNWQCYIDPSLTVLMVIIILSSAFPLIKETAAILLQMVPKGVNMEELMSKLSAVPGISSVHEVHIWELVSGKIIATLHIKYPKDRGYQDASTKIREIFHHAGIHNVTIQFENVDLKEPLEQKDLLLLCNSPCISKGCAKQLCCPPGALPLAHVNGCAEHNGGPSLDTYGSDGLSRRDAREVAIEVSLDSCLSDHGQSLNKTQEDQCYVNRTHF
In the case of B1, the stoichiometry N (usually a count of units in the complex or per binding partner) came to 2.
